The labels stand for the following.
B1: Analog 89 (peptide)
peptide: AEFFKLGP[dN]GYVYLHSA-NH2
modifications: N-terminus assumed
SMILES: CC(C)C[C@H](NC(=O)[C@H](CCCCN)NC(=O)[C@H](Cc1ccccc1)NC(=O)[C@H](Cc1ccccc1)NC(=O)[C@H](CCC(=O)O)NC(=O)[C@H](C)N)C(=O)NCC(=O)N1CCC[C@H]1C(=O)N[C@H](CC(N)=O)C(=O)NCC(=O)N[C@@H](Cc1ccc(O)cc1)C(=O)N[C@H](C(=O)N[C@@H](Cc1ccc(O)cc1)C(=O)N[C@@H](CC(C)C)C(=O)N[C@@H](Cc1c[nH]cn1)C(=O)N[C@@H](CO)C(=O)N[C@@H](C)C(N)=O)C(C)C
B2: Analog 83 (peptide)
peptide: A[dE]FFKLGPNGYVYLHSA-NH2
modifications: N-terminus assumed
SMILES: CC(C)C[C@H](NC(=O)[C@H](CCCCN)NC(=O)[C@H](Cc1ccccc1)NC(=O)[C@H](Cc1ccccc1)NC(=O)[C@@H](CCC(=O)O)NC(=O)[C@H](C)N)C(=O)NCC(=O)N1CCC[C@H]1C(=O)N[C@@H](CC(N)=O)C(=O)NCC(=O)N[C@@H](Cc1ccc(O)cc1)C(=O)N[C@H](C(=O)N[C@@H](Cc1ccc(O)cc1)C(=O)N[C@@H](CC(C)C)C(=O)N[C@@H](Cc1c[nH]cn1)C(=O)N[C@@H](CO)C(=O)N[C@@H](C)C(N)=O)C(C)C
B3: Analog 47 (peptide)
peptide: A[dE]STYHHLSLGYMYTLN-NH2
modifications: N-terminus assumed
SMILES: CSCC[C@H](NC(=O)[C@H](Cc1ccc(O)cc1)NC(=O)CNC(=O)[C@H](CC(C)C)NC(=O)[C@H](CO)NC(=O)[C@H](CC(C)C)NC(=O)[C@H](Cc1c[nH]cn1)NC(=O)[C@H](Cc1c[nH]cn1)NC(=O)[C@H](Cc1ccc(O)cc1)NC(=O)[C@@H](NC(=O)[C@H](CO)NC(=O)[C@@H](CCC(=O)O)NC(=O)[C@H](C)N)[C@@H](C)O)C(=O)N[C@@H](Cc1ccc(O)cc1)C(=O)N[C@H](C(=O)N[C@@H](CC(C)C)C(=O)N[C@@H](CC(N)=O)C(N)=O)[C@@H](C)O
B4: Analog 55 (peptide)
peptide: AESTYHHLS[dL]GYMYTLN-NH2
modifications: N-terminus assumed
SMILES: CSCC[C@H](NC(=O)[C@H](Cc1ccc(O)cc1)NC(=O)CNC(=O)[C@@H](CC(C)C)NC(=O)[C@H](CO)NC(=O)[C@H](CC(C)C)NC(=O)[C@H](Cc1c[nH]cn1)NC(=O)[C@H](Cc1c[nH]cn1)NC(=O)[C@H](Cc1ccc(O)cc1)NC(=O)[C@@H](NC(=O)[C@H](CO)NC(=O)[C@H](CCC(=O)O)NC(=O)[C@H](C)N)[C@@H](C)O)C(=O)N[C@@H](Cc1ccc(O)cc1)C(=O)N[C@H](C(=O)N[C@@H](CC(C)C)C(=O)N[C@@H](CC(N)=O)C(N)=O)[C@@H](C)O
B5: Analog 45 (peptide)
peptide: AESTYHHLSLGY[Abu]YTLN-NH2
modifications: N-terminus assumed
SMILES: CC[C@H](NC(=O)[C@H](Cc1ccc(O)cc1)NC(=O)CNC(=O)[C@H](CC(C)C)NC(=O)[C@H](CO)NC(=O)[C@H](CC(C)C)NC(=O)[C@H](Cc1c[nH]cn1)NC(=O)[C@H](Cc1c[nH]cn1)NC(=O)[C@H](Cc1ccc(O)cc1)NC(=O)[C@@H](NC(=O)[C@H](CO)NC(=O)[C@H](CCC(=O)O)NC(=O)[C@H](C)N)[C@@H](C)O)C(=O)N[C@@H](Cc1ccc(O)cc1)C(=O)N[C@H](C(=O)N[C@@H](CC(C)C)C(=O)N[C@@H](CC(N)=O)C(N)=O)[C@@H](C)O
notes: T0004 prints Y there, as in peptide 25; Y is used
B6: Analog 46 (peptide)
peptide: [dA]ESTYHHLSLGYMYTLN-NH2
modifications: N-terminus assumed
SMILES: CSCC[C@H](NC(=O)[C@H](Cc1ccc(O)cc1)NC(=O)CNC(=O)[C@H](CC(C)C)NC(=O)[C@H](CO)NC(=O)[C@H](CC(C)C)NC(=O)[C@H](Cc1c[nH]cn1)NC(=O)[C@H](Cc1c[nH]cn1)NC(=O)[C@H](Cc1ccc(O)cc1)NC(=O)[C@@H](NC(=O)[C@H](CO)NC(=O)[C@H](CCC(=O)O)NC(=O)[C@@H](C)N)[C@@H](C)O)C(=O)N[C@@H](Cc1ccc(O)cc1)C(=O)N[C@H](C(=O)N[C@@H](CC(C)C)C(=O)N[C@@H](CC(N)=O)C(N)=O)[C@@H](C)O
B7: Analog 61 (peptide)
peptide: AESTYHHLSLGYMYTL[dN]-NH2
modifications: N-terminus assumed
SMILES: CSCC[C@H](NC(=O)[C@H](Cc1ccc(O)cc1)NC(=O)CNC(=O)[C@H](CC(C)C)NC(=O)[C@H](CO)NC(=O)[C@H](CC(C)C)NC(=O)[C@H](Cc1c[nH]cn1)NC(=O)[C@H](Cc1c[nH]cn1)NC(=O)[C@H](Cc1ccc(O)cc1)NC(=O)[C@@H](NC(=O)[C@H](CO)NC(=O)[C@H](CCC(=O)O)NC(=O)[C@H](C)N)[C@@H](C)O)C(=O)N[C@@H](Cc1ccc(O)cc1)C(=O)N[C@H](C(=O)N[C@@H](CC(C)C)C(=O)N[C@H](CC(N)=O)C(N)=O)[C@@H](C)O
B8: Peptide 25 (synthetic peptide of clone 25) (peptide)
peptide: AESTYHHLSLGYMYTLN-NH2
notes: also called clone 25 peptide; analogs 3 and 4
B9: Analog 35 (peptide)
peptide: AEST[1Nal]HHLSLGYMYTLN-NH2
modifications: N-terminus assumed
SMILES: CSCC[C@H](NC(=O)[C@H](Cc1ccc(O)cc1)NC(=O)CNC(=O)[C@H](CC(C)C)NC(=O)[C@H](CO)NC(=O)[C@H](CC(C)C)NC(=O)[C@H](Cc1c[nH]cn1)NC(=O)[C@H](Cc1c[nH]cn1)NC(=O)[C@H](Cc1cccc2ccccc12)NC(=O)[C@@H](NC(=O)[C@H](CO)NC(=O)[C@H](CCC(=O)O)NC(=O)[C@H](C)N)[C@@H](C)O)C(=O)N[C@@H](Cc1ccc(O)cc1)C(=O)N[C@H](C(=O)N[C@@H](CC(C)C)C(=O)N[C@@H](CC(N)=O)C(N)=O)[C@@H](C)O
B10: Analog 54 (peptide)
peptide: AESTYHHL[dS]LGYMYTLN-NH2
modifications: N-terminus assumed
SMILES: CSCC[C@H](NC(=O)[C@H](Cc1ccc(O)cc1)NC(=O)CNC(=O)[C@H](CC(C)C)NC(=O)[C@@H](CO)NC(=O)[C@H](CC(C)C)NC(=O)[C@H](Cc1c[nH]cn1)NC(=O)[C@H](Cc1c[nH]cn1)NC(=O)[C@H](Cc1ccc(O)cc1)NC(=O)[C@@H](NC(=O)[C@H](CO)NC(=O)[C@H](CCC(=O)O)NC(=O)[C@H](C)N)[C@@H](C)O)C(=O)N[C@@H](Cc1ccc(O)cc1)C(=O)N[C@H](C(=O)N[C@@H](CC(C)C)C(=O)N[C@@H](CC(N)=O)C(N)=O)[C@@H](C)O
B11: Analog 44 (peptide)
peptide: AESTYHHLSLGY[Nle]YTLN-NH2
modifications: N-terminus assumed
SMILES: CCCC[C@H](NC(=O)[C@H](Cc1ccc(O)cc1)NC(=O)CNC(=O)[C@H](CC(C)C)NC(=O)[C@H](CO)NC(=O)[C@H](CC(C)C)NC(=O)[C@H](Cc1c[nH]cn1)NC(=O)[C@H](Cc1c[nH]cn1)NC(=O)[C@H](Cc1ccc(O)cc1)NC(=O)[C@@H](NC(=O)[C@H](CO)NC(=O)[C@H](CCC(=O)O)NC(=O)[C@H](C)N)[C@@H](C)O)C(=O)N[C@@H](Cc1ccc(O)cc1)C(=O)N[C@H](C(=O)N[C@@H](CC(C)C)C(=O)N[C@@H](CC(N)=O)C(N)=O)[C@@H](C)O
B12: Analog 36 (peptide)
peptide: AEST[2Nal]HHLSLGYMYTLN-NH2
modifications: N-terminus assumed
SMILES: CSCC[C@H](NC(=O)[C@H](Cc1ccc(O)cc1)NC(=O)CNC(=O)[C@H](CC(C)C)NC(=O)[C@H](CO)NC(=O)[C@H](CC(C)C)NC(=O)[C@H](Cc1c[nH]cn1)NC(=O)[C@H](Cc1c[nH]cn1)NC(=O)[C@H](Cc1ccc2ccccc2c1)NC(=O)[C@@H](NC(=O)[C@H](CO)NC(=O)[C@H](CCC(=O)O)NC(=O)[C@H](C)N)[C@@H](C)O)C(=O)N[C@@H](Cc1ccc(O)cc1)C(=O)N[C@H](C(=O)N[C@@H](CC(C)C)C(=O)N[C@@H](CC(N)=O)C(N)=O)[C@@H](C)O
B13: Analog 60 (peptide)
peptide: AESTYHHLSLGYMYT[dL]N-NH2
modifications: N-terminus assumed
SMILES: CSCC[C@H](NC(=O)[C@H](Cc1ccc(O)cc1)NC(=O)CNC(=O)[C@H](CC(C)C)NC(=O)[C@H](CO)NC(=O)[C@H](CC(C)C)NC(=O)[C@H](Cc1c[nH]cn1)NC(=O)[C@H](Cc1c[nH]cn1)NC(=O)[C@H](Cc1ccc(O)cc1)NC(=O)[C@@H](NC(=O)[C@H](CO)NC(=O)[C@H](CCC(=O)O)NC(=O)[C@H](C)N)[C@@H](C)O)C(=O)N[C@@H](Cc1ccc(O)cc1)C(=O)N[C@H](C(=O)N[C@H](CC(C)C)C(=O)N[C@@H](CC(N)=O)C(N)=O)[C@@H](C)O

Square brackets hold non-standard residues; d marks the D form. Ends that are not written are not given here. 1Nal = N[C@@H](Cc1cccc2ccccc12)C(=O)O; 2Nal = N[C@@H](Cc1ccc2ccccc2c1)C(=O)O; Nle = CCCC[C@H](N)C(=O)O; Abu = CC[C@H](N)C(=O)O

For one assay, the target named is T1, Soluble recombinant human urokinase receptor (suPAR) (human, UniProt Q03405 23-299, limits assumed, biotinylated in the plate assays (sites not given)).
T1 construct: Only called a soluble truncated form of the urokinase receptor; also called soluble uPAR; biotinylated suPAR
T1 sequence (Q03405 23-299 limits assumed): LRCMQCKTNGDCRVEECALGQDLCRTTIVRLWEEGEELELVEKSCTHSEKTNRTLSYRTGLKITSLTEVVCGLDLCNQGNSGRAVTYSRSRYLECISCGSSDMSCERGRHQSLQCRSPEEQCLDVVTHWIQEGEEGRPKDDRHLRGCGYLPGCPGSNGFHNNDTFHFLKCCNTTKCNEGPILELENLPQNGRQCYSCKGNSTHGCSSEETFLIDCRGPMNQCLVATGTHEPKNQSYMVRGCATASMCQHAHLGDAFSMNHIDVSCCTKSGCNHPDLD
Put plainly: competition with phage displaying peptide 9 for soluble uPAR. On the procedure: (§1) The final anti-M13 conjugate dilution was 1:4000.
(§2) These concentrations were calculated based on the synthesis reactions.
In the case of B1, the “% Inhibition at 2.5 uM” value is 15% and the “% Inhibition at 5 uM” value stood at 13%.

For AEFFKLGPNGYVYLHSA-NH2 (also called analogs 62-64) [Peptide 9 (synthetic peptide of clone 9)], the “% Inhibition at 2.5 uM” value is 59% and the “% Inhibition at 5 uM” value turned out to be 71%.

Take B2: the “% Inhibition at 2.5 uM” value was found to be 44% and the “% Inhibition at 5 uM” value is 59%.

In another assay the target is T1, Soluble recombinant human urokinase …. Put plainly: competition with phage displaying peptide 25 for soluble uPAR. The protocol: as §1, §2
Regarding B3, the “% Inhibition at 2.5 uM” value came out at 35% and the “% Inhibition at 5 uM” value turned out to be 61%.

As to B4, the “% Inhibition at 2.5 uM” value stood at 56% and the “% Inhibition at 5 uM” value is 80%.

With B5, the “% Inhibition at 2.5 uM” value was determined as 31% and the “% Inhibition at 5 uM” value was 59%.

For B6, the “% Inhibition at 2.5 uM” value came out at 41% and the “% Inhibition at 5 uM” value was 57%.

Turning to B7, the “% Inhibition at 2.5 uM” value amounted to 32% and the “% Inhibition at 5 uM” value worked out at 55%.

In the case of B8, the “% Inhibition at 2.5 uM” value worked out at 45% and the “% Inhibition at 5 uM” value came out at 59%.

Consider AESTYHHLSLGYVYTLN-NH2 [Analog 43], for which the “% Inhibition at 2.5 uM” value worked out at 63% and the “% Inhibition at 5 uM” value stood at 82%.

With AESTFHHLSLGYMYTLN-NH2 [Analog 34], the “% Inhibition at 2.5 uM” value came to 38% and the “% Inhibition at 5 uM” value was determined as 47%.

Regarding B9, the “% Inhibition at 2.5 uM” value was 70% and the “% Inhibition at 5 uM” value was determined as 94%.

On to B10, for which the “% Inhibition at 2.5 uM” value stood at 73% and the “% Inhibition at 5 uM” value was 86%.

As for B11, the “% Inhibition at 5 uM” value came out at 91%.

B12: the “% Inhibition at 2.5 uM” value was found to be 61% and the “% Inhibition at 5 uM” value stood at 78%.

On to B13, for which the “% Inhibition at 2.5 uM” value was found to be 22% and the “% Inhibition at 5 uM” value worked out at 75%.

Usually % Inhibition stands for the relative decrease from the control value, in per cent.

The values above are taken from US20040265797A1 (CHIRON, published 2004).
